Results as given in patent US9205132B2, “Method of lowering mortality” (CORTHERA, INC., priority 2008, dated 2015).
“Also recorded” adds a separate entry of the source. Marks after values point to notes of the source that are not given here.

Legend:
[1] = test system: patients with acute heart failure (AHF); assay: Post-discharge outcomes to Day 60 and Day 180 (death, rehospitalization), Pre-RELAX-AHF trial; conditions: for Days alive out of hospital: Day 60, mean ± SD
Procedure: Patient-reported dyspnea was assessed using both a standard 7-point Likert Scale and a standard 100-mm Visual Analog Scale (VAS). Assessments were performed at baseline (VaS only), 6 h, 12 h, 24 h, 48 h after initiation of drug therapy and at Days 3, 4, 5 and 14. Questionnaires were administered in the local language, and investigators received training in the standardized administration of these evaluations. Daily, serial physician-reported assessments of heart failure signs and symptoms were, conducted including jugular venous distension, rales, edema, orthopnea, and dyspnea on exertion, in-hospital worsening heart failure was defined as a physician-determined assessment based on worsening symptoms or signs of heart failure and the need for the addition or institution of IV medications or mechanical support to treat AHF. Vital status and rehospitalization information was collected by telephone at Day 30, Day 60 and (vital status only at.) Day 180. When the last enrolled patient reached Day 60, telephone contact was made with all patients who were between Day 60 and Day 180 of follow-up to complete the study.
1.) Relief of dyspnea, assessed with two complementary Instruments; (a) Change in dyspnea by Likert scale, and (b) Change from baseline by Visual Analog Scale. 2.) In-hospital worsening heart failure (WMF) to Day 5. […] 4.) Length of initial hospital stay. 5.) Days alive and out-of-hospital to Day 60. 6.) Death due to cardiovascular causes or rehospitalization for heart failure or renal failure to Day 60. 7.) Mortality due to cardiovascular causes to Day 180. In addition, serial assessments of safety were performed including vital-signs, physical examinations, adverse events and clinical laboratory evaluations.
Data are presented as means with standard deviations unless otherwise specified. Missing data were generally imputed by a last-observation-carried-forward approach. The worst observed dyspnea Likert or VAS score was carried forward from the time of death or worsening heart failure. The area under the curve representing the change in VAS score from baseline through Day 5 was computed by trapezoidal rule. For patients who died during the initial hospitalization, length of stay was imputed as the maximum observed plus 1 day (33 days). […] To control for regional variations in this relatively small study, region as a covariate or stratifying variable was prospectively pre-specified in the analyses of treatment effect. Rehospitalization and mortality rates through Day 180 were estimated using Kaplan-Meier (product-limit) methods, and groups compared using the Wald test of the treatment effect from Cox regression models, where time-to-event was censored at last patient contact for patients without the event of interest.

[2] = test system: patients with systemic sclerosis; assay: Clinical trial of relaxin in patients with systemic sclerosis, continuous SQ infusion for six months; assay type: in vivo, human
Excerpt: Overview. Clinical trials with relaxin have also been conducted on systemic sclerosis patients, 257 human subjects who suffer from systemic sclerosis, a serious fibrotic disease, have been treated with relaxin by continuous and subcutaneous (SQ) infusion for six months. […] These findings support the hypothesis that relaxin administration was associated with balanced systemic and renal vasodilation.

[3] = test system: patients with acute heart failure (AHF); assay: Safety endpoints (adverse events, blood pressure, renal impairment, clinical laboratory), Pre-RELAX-AHF trial; assay type: in vivo, human; conditions: for change from baseline in mean hematocrit at 48 hours: described as transient decrease; for Total number of SAEs: to Day 30
Procedure: Study Procedures. The study was approved by the relevant ethics committees, institutional review hoards and regulatory authorities, and conducted under the International Conference on Harmonization Good Clinical Practice guidelines. All patients provided informed written consent prior to participation. […] The placebo used for the study was the same solution as the diluent used to prepare the 100 μg/kg/day dose. The randomization ratio was 3:2:2:2:2, respectively, Relaxin (Corthera, San Mateo, Calif.) was manufactured using recombinant techniques and was identical to the naturally-occurring peptide hormone. By protocol, the study drug infusion was to be terminated if the patient's SBP was reduced to <100 mmHg or by >40 mmHg compared to baseline in two successive measurements, 15 minutes apart. Investigators were not prohibited from utilizing any standard medication, thought necessary to treat patients enrolled in the study, including additional vasodilators, following a 4-hour washout period during which time IV vasodilators, IV pure inotropes and meals were withheld, hemodynamic, renal, and clinical responses to 48 hours of study drug infusion were assessed.
Study Endpoints. […] 4.) Length of initial hospital stay.

## Relaxin
[1]; 30 mcg/kg/d IV 48 h, vs placebo
  estimated hazard reduction, death due to cardiovascular causes or rehospitalization due to heart failure or renal failure at day 60: 87%
[1]; 10 mcg/kg/d IV 48 h
  Days alive out of hospital: 47.0 ± 13.0 days
[1]; 30 mcg/kg/d IV 48 h
  Days alive out of hospital: 47.9 ± 10.1 days
[1]; 100 mcg/kg/d IV 48 h
  Days alive out of hospital: 48 ± 10.1 days
[1]; 250 mcg/kg/d IV 48 h
  Days alive out of hospital: 47.6 ± 12.0 days
[1]; Day 180, 10 mcg/kg/d IV 48 h
  All-cause death (KM %): 5.0%
[1]; relaxin-treated patients vs placebo
  mean number of days alive and out-of-hospital at Day 60, greater than placebo: approximately 4 days
[2]
  blood pressure: stable decreases in blood pressure
  hypotensive events: did not experience any serious hypotensive events; also recorded: None of the patients developed hypotension during dosing
  predicted creatinine clearance (renal function): statistically significant increase in predicted creatinine clearance; also recorded: stable improvement in renal function
[3]; 10 mcg/kg/d IV 48 h
  Patients with any AE from Day 15 to Day 30, n (%): 4 (10.0%) n (%)
  Patients with any SAEs to Day 30, n (%): 7 (17.5%) n (%)
  Patients with any adverse events to Day 30, n (%): 32 (80.0%) n (%)
  Protocol-specified study drug discontinuation due to blood pressure reduction: 20.0%
  Renal impairment: Patients with ≧0.3 mg/dL increase in creatinine at Day 5: 3 (7.9%) n (%)
  Renal impairment: Patients with ≧0.3 mg/dL increase in creatinine at Day 5 and Day 14: 3 (7.5%) n (%)
  Renal impairment: Patients with ≧25% increase in creatinine at Day 5: 4 (10.0%) n (%)
  SAE to Day 30: Acute respiratory failure, n (%): 0 n (%)
  SAE to Day 30: Bronchitis, n (%): 0 n (%)
  SAE to Day 30: Cardiac failure, n (%): 2 (5.0%) n (%)
  SAE to Day 30: Cerebrovascular accident, n (%): 0 n (%)
  SAE to Day 30: Hypotension, n (%): 0 n (%)
  SAE to Day 30: Noncardiac chest pain, n (%): 2 (5.0%) n (%)
  SAE to Day 30: Pneumonia, n (%): 0 n (%)
  SAE to Day 30: Renal failure, n (%): 0 n (%)
  SAE to Day 30: Urinary retention, n (%): 0 n (%)
  SAE to Day 30: Urinary tract infection, n (%): 0 n (%)
  SAE to Day 30: Ventricular fibrillation, n (%): 1 (2.5%) n (%)
  mean change in creatinine from baseline at Day 14: 0.07 ± 0.24 mg/dL
  patients requiring treatment of blood pressure reduction: None of the patients
  proportion of patients at Day 14 with an increase in creatinine of 0.3 mg/dL or more: 19.4%
  change from baseline in mean hematocrit at 48 hours: 0.57%
  Total number of SAEs: 8
[3]; 30 mcg/kg/d IV 48 h
  Patients with any AE from Day 15 to Day 30, n (%): 5 (11.9%) n (%)
  Patients with any SAEs to Day 30, n (%): 7 (16.7%) n (%)
  Patients with any adverse events to Day 30, n (%): 25 (59.5%) n (%)
  Protocol-specified study drug discontinuation due to blood pressure reduction: 9.5%
  Renal impairment: Patients with ≧0.3 mg/dL increase in creatinine at Day 5: 7 (18.9%) n (%)
  Renal impairment: Patients with ≧0.3 mg/dL increase in creatinine at Day 5 and Day 14: 3 (7.3%) n (%)
  Renal impairment: Patients with ≧25% increase in creatinine at Day 5: 9 (22.0%) n (%)
  SAE to Day 30: Acute respiratory failure, n (%): 0 n (%)
  SAE to Day 30: Bronchitis, n (%): 1 (2.4%) n (%)
  SAE to Day 30: Cardiac failure, n (%): 1 (2.4%) n (%)
  SAE to Day 30: Cerebrovascular accident, n (%): 2 (4.8%) n (%)
  SAE to Day 30: Hypotension, n (%): 0 n (%)
  SAE to Day 30: Noncardiac chest pain, n (%): 0 n (%)
  SAE to Day 30: Pneumonia, n (%): 3 (7.1%) n (%)
  SAE to Day 30: Renal failure, n (%): 1 (2.4%) n (%)
  SAE to Day 30: Urinary retention, n (%): 0 n (%)
  SAE to Day 30: Urinary tract infection, n (%): 1 (2.4%) n (%)
  SAE to Day 30: Ventricular fibrillation, n (%): 0 n (%)
  mean change in creatinine from baseline at Day 14: 0.13 ± 0.49 mg/dL
  mean decrease in SBP compared to placebo during infusion: 3-4 mmHg
  patients requiring treatment of blood pressure reduction: None of the patients
  proportion of patients at Day 14 with an increase in creatinine of 0.3 mg/dL or more: 26.3%
  change from baseline in mean hematocrit at 48 hours: 1.45%
  Total number of SAEs: 12
[3]; 100 mcg/kg/d IV 48 h
  Patients with any AE from Day 15 to Day 30, n (%): 2 (5.3%) n (%)
  Patients with any SAEs to Day 30, n (%): 3 (7.9%) n (%)
  Patients with any adverse events to Day 30, n (%): 24 (63.2%) n (%)
  Protocol-specified study drug discontinuation due to blood pressure reduction: 7.9%
  Renal impairment: Patients with ≧0.3 mg/dL increase in creatinine at Day 5: 9 (26.5%) n (%)
  Renal impairment: Patients with ≧0.3 mg/dL increase in creatinine at Day 5 and Day 14: 4 (10.8%) n (%)
  Renal impairment: Patients with ≧25% increase in creatinine at Day 5: 11 (29.7%) * n (%)
  SAE to Day 30: Acute respiratory failure, n (%): 1 (2.6%) n (%)
  SAE to Day 30: Bronchitis, n (%): 0 n (%)
  SAE to Day 30: Cardiac failure, n (%): 0 n (%)
  SAE to Day 30: Cerebrovascular accident, n (%): 0 n (%)
  SAE to Day 30: Hypotension, n (%): 0 n (%)
  SAE to Day 30: Noncardiac chest pain, n (%): 0 n (%)
  SAE to Day 30: Pneumonia, n (%): 0 n (%)
  SAE to Day 30: Renal failure, n (%): 0 n (%)
  SAE to Day 30: Urinary retention, n (%): 2 (5.3%) n (%)
  SAE to Day 30: Urinary tract infection, n (%): 0 n (%)
  SAE to Day 30: Ventricular fibrillation, n (%): 0 n (%)
  mean change in creatinine from baseline at Day 14: 0.08 ± 0.39 mg/dL
  mean decrease in SBP compared to placebo during infusion: 3-4 mmHg
  proportion of patients at Day 14 with an increase in creatinine of 0.3 mg/dL or more: 24.2%
  change from baseline in mean hematocrit at 48 hours: 0.25%
  Total number of SAEs: 3
[3]; 250 mcg/kg/d IV 48 h
  Patients with any AE from Day 15 to Day 30, n (%): 3 (6.1%) n (%)
  Patients with any SAEs to Day 30, n (%): 8 (16.3%) n (%)
  Patients with any adverse events to Day 30, n (%): 25 (51.0%) n (%)
  Protocol-specified study drug discontinuation due to blood pressure reduction: 16.3%
  Renal impairment: Patients with ≧0.3 mg/dL increase in creatinine at Day 5: 10 (22.7%) n (%)
  Renal impairment: Patients with ≧0.3 mg/dL increase in creatinine at Day 5 and Day 14: 7 (15.2%) + n (%)
  Renal impairment: Patients with ≧25% increase in creatinine at Day 5: 12 (25.5%) n (%)
  SAE to Day 30: Acute respiratory failure, n (%): 0 n (%)
  SAE to Day 30: Bronchitis, n (%): 1 (2.0%) n (%)
  SAE to Day 30: Cardiac failure, n (%): 2 (6.1%) n (%)
  SAE to Day 30: Cerebrovascular accident, n (%): 0 n (%)
  SAE to Day 30: Hypotension, n (%): 2 (4.1%) n (%)
  SAE to Day 30: Noncardiac chest pain, n (%): 1 (2.0%) n (%)
  SAE to Day 30: Pneumonia, n (%): 0 n (%)
  SAE to Day 30: Renal failure, n (%): 0 n (%)
  SAE to Day 30: Urinary retention, n (%): 0 n (%)
  SAE to Day 30: Urinary tract infection, n (%): 1 (2.0%) n (%)
  SAE to Day 30: Ventricular fibrillation, n (%): 0 n (%)
  mean change in creatinine from baseline at Day 14: 0.10 ± 0.39 mg/dL
  proportion of patients at Day 14 with an increase in creatinine of 0.3 mg/dL or more: 37.2%
  change from baseline in mean hematocrit at 48 hours: 0.64%
  Total number of SAEs: 11
[3]; AHF and/or acute vascular failure patients
  renal toxicity: low to no renal toxicity
[3]; AHF patients, all doses
  safety and tolerability: no safety or tolerability issues
[3]; FIGS. 22A and 22B
  hypotension in patients with baseline SBP below the median: does not cause deleterious hypotension
[3]; all cases with blood pressure reduction
  trough SBP: ≥ 80 mmHg
[3]; all relaxin groups vs placebo, FIG. 20
  mean change in pulse from baseline through day 14: not chronotropic
[3]; all relaxin groups, FIG. 21
  average decrease in systolic blood pressure over all time points during infusion vs placebo: did not differ
[3]; four relaxin-treated groups together (5 patients)
  patients who received intravenous fluids for hypotension: 3.0%
[3]; relaxin-treated patients, all doses
  patients with SBP reductions in whom SBP stabilized or rose with no therapy after discontinuation of study drug: 18 of 23
